Experimental data: US20110257036A1

Molecular target: BRCA1 protein (mouse) (mouse) (UniProt P48754)
Assay: cell-based or functional assay

Sequence of UniProt P48754 (P48754 whole entry): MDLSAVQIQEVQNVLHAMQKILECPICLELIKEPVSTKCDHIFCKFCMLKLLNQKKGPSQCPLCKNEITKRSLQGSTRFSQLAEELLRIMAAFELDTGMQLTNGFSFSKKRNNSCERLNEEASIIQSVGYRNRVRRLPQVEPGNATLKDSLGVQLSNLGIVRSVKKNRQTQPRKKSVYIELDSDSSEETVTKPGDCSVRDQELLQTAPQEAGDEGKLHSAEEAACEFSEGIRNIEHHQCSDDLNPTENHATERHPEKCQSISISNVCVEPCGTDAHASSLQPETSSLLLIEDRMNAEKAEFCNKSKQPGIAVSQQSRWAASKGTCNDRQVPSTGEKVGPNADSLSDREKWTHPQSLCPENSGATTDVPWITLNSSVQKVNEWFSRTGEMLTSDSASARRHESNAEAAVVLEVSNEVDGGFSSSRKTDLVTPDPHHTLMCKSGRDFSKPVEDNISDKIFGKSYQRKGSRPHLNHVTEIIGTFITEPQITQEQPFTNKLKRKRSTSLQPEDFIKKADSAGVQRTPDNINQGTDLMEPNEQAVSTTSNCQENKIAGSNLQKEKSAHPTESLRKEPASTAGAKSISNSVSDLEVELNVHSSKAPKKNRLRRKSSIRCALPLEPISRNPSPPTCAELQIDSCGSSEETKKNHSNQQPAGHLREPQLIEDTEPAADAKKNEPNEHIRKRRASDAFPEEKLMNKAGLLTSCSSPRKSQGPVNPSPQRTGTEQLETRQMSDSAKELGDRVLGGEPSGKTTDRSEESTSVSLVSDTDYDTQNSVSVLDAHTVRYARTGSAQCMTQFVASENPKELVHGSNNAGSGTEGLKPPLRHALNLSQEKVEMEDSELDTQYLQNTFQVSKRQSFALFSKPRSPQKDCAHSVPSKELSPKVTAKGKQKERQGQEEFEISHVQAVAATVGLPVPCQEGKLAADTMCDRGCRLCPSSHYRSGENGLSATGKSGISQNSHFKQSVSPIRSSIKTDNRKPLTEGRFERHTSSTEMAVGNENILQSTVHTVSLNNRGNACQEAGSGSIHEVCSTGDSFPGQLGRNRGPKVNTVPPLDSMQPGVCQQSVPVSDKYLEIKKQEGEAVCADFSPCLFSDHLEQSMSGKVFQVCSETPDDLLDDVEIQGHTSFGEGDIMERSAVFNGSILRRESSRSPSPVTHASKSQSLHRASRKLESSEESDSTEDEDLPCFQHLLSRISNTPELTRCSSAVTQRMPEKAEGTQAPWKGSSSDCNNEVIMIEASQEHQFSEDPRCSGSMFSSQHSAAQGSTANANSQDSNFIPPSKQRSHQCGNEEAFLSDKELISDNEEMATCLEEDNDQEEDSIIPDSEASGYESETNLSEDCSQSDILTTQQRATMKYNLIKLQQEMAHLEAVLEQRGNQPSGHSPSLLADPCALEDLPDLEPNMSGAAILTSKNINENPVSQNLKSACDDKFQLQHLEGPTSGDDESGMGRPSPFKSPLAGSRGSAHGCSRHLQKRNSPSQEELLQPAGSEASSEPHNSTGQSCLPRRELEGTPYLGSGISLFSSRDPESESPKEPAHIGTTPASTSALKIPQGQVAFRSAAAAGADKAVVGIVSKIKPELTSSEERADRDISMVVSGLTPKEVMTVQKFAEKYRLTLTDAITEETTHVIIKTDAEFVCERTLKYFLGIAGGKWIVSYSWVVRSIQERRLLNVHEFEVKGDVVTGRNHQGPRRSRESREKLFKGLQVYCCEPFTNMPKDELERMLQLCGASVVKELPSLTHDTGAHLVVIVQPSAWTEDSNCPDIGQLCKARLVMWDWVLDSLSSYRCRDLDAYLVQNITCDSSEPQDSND

co-localization of anti-FANCD2 foci with anti-BRCA1 staining (20 pachytene nuclei): 65%
Substance: FANCD2 protein (mouse) (from UniProt Q80V62 1-1450)
